The source of these data is ChEMBL document CHEMBL1250451, “Mechanistic insights into a Ca2+-dependent family of alpha-mannosidases in a human gut symbiont” (Nat Chem Biol, 2010).

Common to all, as to assay type: protein assay
Substrate in series [1]: O=[N+]([O-])c1ccc(O[C@H]2O[C@H](CO)[C@@H](O)[C@H](O)[C@@H]2O)cc1
Description: Ratio of Kcat to Km for Bacteroides thetaiotaomicron GH92 alpha-mannosidase GH92 alpha-mannosidase 2948 assessed as mannose release after 16 hrs by HPLC.

Substrate in series [2]: O=[N+]([O-])c1ccc(O[C@H]2O[C@H](CO)[C@@H](O)[C@H](O)[C@@H]2O)cc1
The experiment in a line: Activity of Bacteroides thetaiotaomicron GH92 alpha-mannosidase GH92 alpha-mannosidase 1878 assessed as mannose release after 16 hrs by HPLC.

Substrate in series [3]: O=[N+]([O-])c1ccc(O[C@H]2O[C@H](CO)[C@@H](O)[C@H](O)[C@@H]2O)cc1
The experiment in a line: Ratio of Kcat to Km for Bacteroides thetaiotaomicron GH92 alpha-mannosidase GH92 alpha-mannosidase 1878 assessed as mannose release after 16 hrs by HPLC.

Substrate in series [4]: O=[N+]([O-])c1ccc(O[C@H]2O[C@H](CO)[C@@H](O)[C@H](O)[C@@H]2O)cc1
Description: Activity of Bacteroides thetaiotaomicron GH92 alpha-mannosidase 1032 assessed as mannose release after 16 hrs by HPLC.

Substrate in series [5]: O=[N+]([O-])c1ccc(O[C@H]2O[C@H](CO)[C@@H](O)[C@H](O)[C@@H]2O)cc1
Description: Ratio of Kcat to Km for Bacteroides thetaiotaomicron GH92 alpha-mannosidase 1032 assessed as mannose release after 16 hrs by HPLC.

Substrate in series [6]: O=[N+]([O-])c1ccc(O[C@H]2O[C@H](CO)[C@@H](O)[C@H](O)[C@@H]2O)cc1
The experiment in a line: Ratio of Kcat to Km for Bacteroides thetaiotaomicron GH92 alpha-mannosidase GH92 alpha-mannosidase 3858 assessed as mannose release after 16 hrs by HPLC.

Substrate in series [7]: O=[N+]([O-])c1ccc(O[C@H]2O[C@H](CO)[C@@H](O)[C@H](O)[C@@H]2O)cc1
Description: Activity of Bacteroides thetaiotaomicron GH92 alpha-mannosidase GH92 alpha-mannosidase 3858 assessed as mannose release after 16 hrs by HPLC.

Substrate in series [8]: O=[N+]([O-])c1ccc(O[C@H]2O[C@H](CO)[C@@H](O)[C@H](O)[C@@H]2O)cc1
The experiment in a line: Ratio of Kcat to Km for Bacteroides thetaiotaomicron GH92 alpha-mannosidase GH92 alpha-mannosidase 3130 assessed as mannose release after 16 hrs by HPLC.

Substrate in series [9]: O=[N+]([O-])c1ccc(O[C@H]2O[C@H](CO)[C@@H](O)[C@H](O)[C@@H]2O)cc1
The experiment in a line: Activity of Bacteroides thetaiotaomicron GH92 alpha-mannosidase GH92 alpha-mannosidase 3130 assessed as mannose release after 16 hrs by HPLC.

B1: Alpha-1,2-mannosidase (BT_2948) (Bacteroides thetaiotaomicron), Q8A3K6 (protein)
chain: MKMKLLILAVLPFLTPINMNSQEEKASWVQYVNPLIGTEVWQSGVAVAGHEDPSGYTFPGVTEPFGMTEWTAHTLESKHAGTLHHRVPYWYKHNYISGFMGTHYPSGAVMFDYGAVELMPVVGQLKCRPEERSSSFTHITEKSKPHFYEVMLDDYQVKAQLSATKTSAILQFTYPQSDSAYVVVDAMPSMFTAGAPGYIHIDPVRKEISGKSIQSARGYRETGYFVVRFDKDFDSFGTFNLNNDYPEVIEEKYLFTQKEGKWVNGLKGIYTQDSKGVGHLRSEKIDPVIDFDWDWYKPADDFSFNDYQVTWSGKLKAPSTGEYTLGIQADDGARLYINGELLIDDWKSHSFSYQPTQKKISLEAGKMYDIKLEYYQHEWSSRIKLSWIRPDKKSSTSLLTGNRHLESSTKIGGYIRFKTGKNEVIKAIVGTSFISVEQARINLEREIGAKSMETISAQTEALWNKELSVIDLPGATEQDKIVFYTALYHSFLLPRSLSEDGKYRSPFDGKVHKGISFTDYSIWDTFRATHPLFVLLKPDFAGDLITGLLHAYDEGGWLPKWPNPGYTNCMMGTHSDAIIADAYVKGVRNFDVEKAKKAVLKNAYEKGNHIAWGRLGIMDYERLGYVPVDKYGESVARTMEFAYDDYCLSRFFAEKGEPDLSDKLGKRSKNFRNVLDKETKMVRARKADGSWSNPEDYDISVWSGFNPKGVYNYKKNYTLFVPHDVPELIRFLGGTDSLAVFMDELFDKDIYYVGDEFVMHAPYMYNLCKRPWMTQKRIYDIVNKYYLPTPSGLPGNDDCGQLSSWYIFSAMGFYPMCPASIEYQLGVPCLPGFVLHLPQNRTFTIKTKNFGKGNCYVRAVYLNGKPHRSSVITHSDIINGGEILFELTDKPAYNWFQ
In general, kcat/Km refers to the second-order rate constant that governs catalysis at low substrate concentration. As to B1, the kcat/Km in [1] turned out to be 42.7 M⁻¹ s⁻¹.

B2: Alpha-1,2-mannosidase (BT_1878) (Bacteroides thetaiotaomicron), Q8A6K3 (protein)
chain: MIIMKRKSPVMAVALAGLFMYTSCSPTEQAETKDYTQYVNTFIGAADNGHTFPGACYPFGMIQTSPVTGAVGWRYCSEYTYQDSLIWGFTQTHLNGTGCMDLGDILVMPVTGTRARAWDAYRSHFPKDKEAATPGYYTVELSDPQVKAELTASIHAALHRYTYHKADSASLLIDLQHGPAWREEQYHSQVNSCEVNWEDAQTLAGHVNNTVWVDQDYFFVMKFNRPVIDSLYLPMGETEKGKRIIATFDLKPGDELMMKVALSTTSVEGAKKNLQAEIPDWNFDGVKLAAHDEWNSYLSRMDVEGTDDEKTNFYTCFYHALIQPNQISDVDGMYRNAADSIVKAGTGTFYSTFSLWDTYRAAHPFYTLMVPERVDDFVNSLIEQGEVQGFLPIWALWGKENFCMIGNHGVSVIAEAYRKGFRGFDAERAFNMVKKTQTVSHPLKSDWEVYTKYGYFPTDLTKAESVSSTLESVYDDYAAADMARRMGKEEDAAYFAKRADYYKNLFDSQTNFMRPRKADGTWKSPFNPSDVGHAESTGGDYTEGNAWQYTWHVQHDVPGLIALFGGEEPFLNKLDSLFTVKLETTQADVTGLIGQYAHGNEPSHHVTYLYALAGRPERTQELIREIFDTQYKNKPDGLCGNDDCGQMSAWYMFSAMGFYPVDPVSGDYVFGAPQLPKIVLHLADGKTFTVIAENLSKEHKYVDSITLNGEPYTKNTISHEDILKGGTLVYKMK
In general, Km refers to the substrate concentration at which the rate is half of its maximum. For orientation: kcat means the number of substrate molecules converted per active site and unit of time at saturation. Regarding B2, in series [2], the Michaelis constant (Km) was 900 µM and the kcat was determined as 0.00133 s⁻¹. Moreover, the specificity constant (kcat/Km) in series [3] was 1.48 M⁻¹ s⁻¹.

B3: Alpha-1,2-mannosidase family protein (BT_1032) (Bacteroides thetaiotaomicron), Q8A8Y5 (protein)
chain: MRRILLTCTLAFTLLPVFGGEGKAPPMDKEKSLLIDYVDPFIGTTNFGTTNPGAVCPNGMMSVVPFNVMGSADNTYDKDARWWSTPYEHTNCFFTGYSHVNLSGVGCPELGSLLLMPTTGELNVDYKEYGSKYKDEQASPGYYSNYLTKYNIKTEVSATPRTGIARFTFPKGESHILLNLGEGLTNESGAMLRRVSDSEIEGMKLLGTFCYNPQAVFPIYFVMRVNKVPATTGYWKKQRPMTGVEAEWDRDQGKYKLYTRYGKEIAGDDVGAYFTFETEEGEQVEVQMGVSFVSIENARLNLDKEQSGKNFEQVLSDARAQWNDDLSRITVEGGTDAQKTVFYTALYHLLIHPNVLQDVNGEYPAMESDQILTTKGTRYTVFSLWDTYRNVHQLLTLVYPERQMEMVRTMLDMYREHGWFPKWELYGRETLTMEGDPSIPVIVDTWMKGLRDFDVDLAYEAMYKSATLPGAENLMRPDNDDYMSKGYVPLREQYDNSVSHALEYYIADFALSRFADALGKKKDAEMFYKRSLGYKHYYSKEFGTFRPILPDGTFYSPFNPRQGENFEPNPGFHEGNSWNYTFYVPHDVYGLAKLMGGKKPFVNKLQMVFDEGLYDPANEPDIAYAHLFSYFKGEEWRTQKETQRLLDKYFTTKPDGIPGNDDTGTMSAWAIFNMIGFYPDCPGLPEYALTTPVFNKVTIRLDPKWYKENELVIESNRTGSETLYINKVLLDGKKFNKYRITHDELVHGKRLIFDLK
With B3, in [4], the Michaelis constant (Km) came out at 1700 µM and the catalytic constant (kcat) was found to be 0.006 s⁻¹. Also, the kcat/Km in [5] is 3.5 M⁻¹ s⁻¹.

B4: Alpha-1,2-mannosidase (BT_3858) (Bacteroides thetaiotaomicron), Q8A113 (protein)
chain: MMMNRLNIKRTVGSCLMAMAFFSCTHTDQTPTKDFVDYVNPYIGNISHLLVPTYPTVHLPNSMLRVYPERGDYTSDRVNGLPVVVTSHRGSSAFNLSPVQGEVSRPIVSYSYDLENITPYSYSVYLDEADIQVEYAPSHQAGIYHISFGTEGDNALVVNTKNGKLVAEEKGVSGYQVIDNTPTKIYLYLETSQLPLRKGVLADGKVDMESKEGSAIALYYGSEKNLNLRYGISFISAEQAKKNLQRDITTYDVKAVADAGRRIWNKTLGKIVIEGGSEDEKEIFYTSLYRTYERMINLSEDGKYYSAFDGKIHEDGGVPFYTDDWIWDTYRATHPLRILIEPQKELDMIRSYIRMAEQSDRRWMPTFPEVTGDSHRMNGNHAVAVIWDAYCKGLKDFDLEAAYEACKGAITEKTLLPWLRCPLTELDKFYQEKGFFPALNPGEEETCKAVHSFERRQAVAVMLGNCYDNWCLAQIARTLNKTDDYKKFMRMSYTYRNVYNAETGFFHPKNKDGKFIEPFDYRYSGGQGARGYYGENNGWIYRWDVQHNPADLIALMGGQASFIERLNQTFNEPLGRSKFDFYHQLPDHTGNVGQFSMANEPCLHIPYLYNYAGQPWMTQKRIRVLLNQWFRNDLMGVPGDEDGGGMTAFVVFSMMGFYPVTPGSPTYNIGSPVFQSAKMEVGDGHYFEIIAENYAPDHKYIQSATLNGTPWNKPWFSHADIQNGGRLVLQMGDKPNKKWGIASDAVPPSSESLPE
Turning to B4, the kcat/Km in series [6] was 1.57 M⁻¹ s⁻¹. In [7], the Km was determined as 270 µM and the kcat was 0.000417 s⁻¹.

B5: Alpha-1,2-mannosidase, putative (BT_3130) (Bacteroides thetaiotaomicron), Q8A325 (protein)
chain: MKKLLLSVCAFSLTLATLQAGEITKYVNPFIGTGAIDGGLSGNNYPGATSPFGMIQLSPDTSEAPNWGDASGYDYNRNTIFGFSHTRLSGTGASDLIDITLMPTSSGRTSSAFTHDEEKARPGYYQVMLKDENINAELTTTQRNGIHRYQYPAGKDAEIILDMDHSADKGSWGRRIINSQIRILNDHAVEGYRIITGWAKLRKIYFYMEFSSPILTSTLRDGGRVHENTAVINGTNLHGCFRFGQLNGKPLTCKVALSSVSMENARQNMEQEAPHWDFDRYVAAADADWEKQLGKIEVKGTEVQKEIFYTALYHTMIQPNTMSDVNGEYMAADYTTRKVANNETHYTTFSLWDTFRASHPLYTLLEPERVTDFVKSMIRQYEYYGYLPIWQLWGQDNYCMIGNHSIPVITDAILKGIPGIDMEKAYEAVYNSSVTSHPNSPFEVWEKYGFMPENIQTQSVSITLEQAFDDWCVAQLAAKLNKDADYQRFHKRSEYYRNLFHPKTKFFQSKNDKGEWIEPFDPYQYGGNGGHPFTEGNAWQYFWYVPHNIQALMELTGGTKAFEQKLDTFFTSTYKSEQMNHNASGFVGQYAHGNEPSHHVAYLYNFAGQPWKTQKYVSHILNTLYNNTSSGYAGNDDCGQMSAWYVFSAMGFYPVNPADGRYIIGSPLLDECTLKLAGNKEFRIRTIRKSPEDIYIQSVTLNGKKHKDFFITHQDIMNGGTMVFKMGKKPSGWGK
Regarding B5, the kcat/Km in series [8] amounted to 112000 M⁻¹ s⁻¹. Moreover, in series [9], the Km came out at 510 µM and the kcat turned out to be 56.7 s⁻¹.
